Experimental data taken from publication doi:10.1101/2021.10.29.466387 (bioRxiv, 2021).
“And” between values parts separate entries of the source, which are not always exact repeats. Equal values may be shown once.

Tests used:
[1] = biological target: the molecule itself; assay: native gel or EMSA
[2] = biological target: the molecule itself; assay: SDS-PAGE of samples folded in detergent micelles

Protein | stoichiometry N [1] | stoichiometry N [2]
^35S-labelled OmpC (natural protein, ^35S-methionine label) MKVKVLSLLVPALLVAGAANAAEVYNKDGNKLDLYGKVDGLHYFSDNKDVDGDQTYMRLGFKGETQVTDQLTGYGQWEYQIQGNSAENENNSWTRVAFAGLKFQDVGSFDYGRNYGVVYDVTSWTDVLPEFGGDTYGSDNFMQQRGNGFATYRNTDFFGLVDGLNFAVQYQGKNGNPSGEGFTSGVTNNGRDALRQNGDGVGGSITYDYEGFGIGGAISSSKRTDAQNTAAYIGNGDRAETYTGGLKYDANNIYLAAQYTQTYNATRVGSLGWANKAQNFEAVAQYQFDFGLRPSLAYLQSKGKNLGRGYDDEDILKYVDVGATYYFNKNMSTYVDYKINLLDDNQFTRDAGINTDNIVALGLVYQF | 3 | 
^35S-labelled OmpC(Y286A) (natural protein, ^35S-methionine label) MKVKVLSLLVPALLVAGAANAAEVYNKDGNKLDLYGKVDGLHYFSDNKDVDGDQTYMRLGFKGETQVTDQLTGYGQWEYQIQGNSAENENNSWTRVAFAGLKFQDVGSFDYGRNYGVVYDVTSWTDVLPEFGGDTYGSDNFMQQRGNGFATYRNTDFFGLVDGLNFAVQYQGKNGNPSGEGFTSGVTNNGRDALRQNGDGVGGSITYDYEGFGIGGAISSSKRTDAQNTAAYIGNGDRAETYTGGLKYDANNIYLAAQYTQTYNATRVGSLGWANKAQNFEAVAQAQFDFGLRPSLAYLQSKGKNLGRGYDDEDILKYVDVGATYYFNKNMSTYVDYKINLLDDNQFTRDAGINTDNIVALGLVYQF | 3 | 
OmpF (natural protein) AEIYNKDGNKVDLYGKAVGLHYFSKGNGENSYGGNGDMTYARLGFKGETQINSDLTGYGQWEYNFQGNNSEGADAQTGNKTRLAFAGLKYADVGSFDYGRNYGVVYDALGYTDMLPEFGGDTAYSDDFFVGRVGGVATYRNSNFFGLVDGLNFAVQYLGKNERDTARRSNGDGVGGSISYEYEGFGIVGAYGAADRTNLQEAQPLGNGKKAEQWATGLKYDANNIYLAANYGETRNATPITNKFTNTSGFANKTQDVLLVAQYQFDFGLRPSIAYTKSKAKDVEGIGDVDLVNYFEVGATYYFNKNMSTYVDYIINQIDSDNKLGVGSDDTVAVGIVYQF | 3 and 2 | 
FLAG-OmpC (natural protein) AEVYNKDGNKLDLYGKVDGLHYFSDNKDVDGDQTYMRLGFKGETQVTDQLTGYGQWEYQIQGNSAENENNSWTRVAFAGLKFQDVGSFDYGRNYGVVYDVTSWTDVLPEFGGDTYGSDNFMQQRGNGFATYRNTDFFGLVDGLNFAVQYQGKNGNPSGEGFTSGVTNNGRDALRQNGDGVGGSITYDYEGFGIGGAISSSKRTDAQNTAAYIGNGDRAETYTGGLKYDANNIYLAAQYTQTYNATRVGSLGWANKAQNFEAVAQYQFDFGLRPSLAYLQSKGKNLGRGYDDEDILKYVDVGATYYFNKNMSTYVDYKINLLDDNQFTRDAGINTDNIVALGLVYQF | 2 and 3 | 
OmpC-His6 (natural protein) AEVYNKDGNKLDLYGKVDGLHYFSDNKDVDGDQTYMRLGFKGETQVTDQLTGYGQWEYQIQGNSAENENNSWTRVAFAGLKFQDVGSFDYGRNYGVVYDVTSWTDVLPEFGGDTYGSDNFMQQRGNGFATYRNTDFFGLVDGLNFAVQYQGKNGNPSGEGFTSGVTNNGRDALRQNGDGVGGSITYDYEGFGIGGAISSSKRTDAQNTAAYIGNGDRAETYTGGLKYDANNIYLAAQYTQTYNATRVGSLGWANKAQNFEAVAQYQFDFGLRPSLAYLQSKGKNLGRGYDDEDILKYVDVGATYYFNKNMSTYVDYKINLLDDNQFTRDAGINTDNIVALGLVYQF |  | 3
